Measured values as given in paper PMC12075613.

B1: RPL18 26-bp mutant competitor (CAAAAC to ATCGTG) (dsDNA)
DNA 1: GATGGAGGAAGATCGTGATTGACCAT
DNA 2: ATGGTCAATCACGATCTTCCTCCATC
B2: RPL18 promoter 26-bp CAAAAC fragment (dsDNA)
DNA 1: GATGGAGGAAGCAAAACATTGACCAT
DNA 2: ATGGTCAATGTTTTGCTTCCTCCATC

Assays:
[1] = target: T1, LIMYB (L10-[…] MYB DOMAIN-CONTAINING PROTEIN) (Arabidopsis thaliana, UniProt Q9FFJ8 1-449); assay: competition
T1 sequence: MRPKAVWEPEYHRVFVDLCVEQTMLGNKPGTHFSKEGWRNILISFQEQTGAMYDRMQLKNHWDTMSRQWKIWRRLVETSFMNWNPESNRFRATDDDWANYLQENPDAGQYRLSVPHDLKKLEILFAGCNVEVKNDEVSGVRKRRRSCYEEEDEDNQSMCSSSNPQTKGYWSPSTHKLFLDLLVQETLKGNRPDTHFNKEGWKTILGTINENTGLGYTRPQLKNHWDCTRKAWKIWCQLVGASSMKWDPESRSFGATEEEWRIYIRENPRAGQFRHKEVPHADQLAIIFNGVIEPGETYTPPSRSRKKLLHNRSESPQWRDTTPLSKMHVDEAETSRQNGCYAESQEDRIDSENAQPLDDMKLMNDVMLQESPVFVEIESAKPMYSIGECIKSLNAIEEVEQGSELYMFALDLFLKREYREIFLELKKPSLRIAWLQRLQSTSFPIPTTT

[2] = target: T1, LIMYB (L10-[…] MYB DOMAIN-CONTAINING …); assay: EMSA

Binder	binding result [1]	binding result [2]
B1	no binding	–
B2	–	binds
